Biological target: T1, Scd5 DxxDxxxD motif peptide (Saccharomyces cerevisiae, UniProt P34758)
T1 chain: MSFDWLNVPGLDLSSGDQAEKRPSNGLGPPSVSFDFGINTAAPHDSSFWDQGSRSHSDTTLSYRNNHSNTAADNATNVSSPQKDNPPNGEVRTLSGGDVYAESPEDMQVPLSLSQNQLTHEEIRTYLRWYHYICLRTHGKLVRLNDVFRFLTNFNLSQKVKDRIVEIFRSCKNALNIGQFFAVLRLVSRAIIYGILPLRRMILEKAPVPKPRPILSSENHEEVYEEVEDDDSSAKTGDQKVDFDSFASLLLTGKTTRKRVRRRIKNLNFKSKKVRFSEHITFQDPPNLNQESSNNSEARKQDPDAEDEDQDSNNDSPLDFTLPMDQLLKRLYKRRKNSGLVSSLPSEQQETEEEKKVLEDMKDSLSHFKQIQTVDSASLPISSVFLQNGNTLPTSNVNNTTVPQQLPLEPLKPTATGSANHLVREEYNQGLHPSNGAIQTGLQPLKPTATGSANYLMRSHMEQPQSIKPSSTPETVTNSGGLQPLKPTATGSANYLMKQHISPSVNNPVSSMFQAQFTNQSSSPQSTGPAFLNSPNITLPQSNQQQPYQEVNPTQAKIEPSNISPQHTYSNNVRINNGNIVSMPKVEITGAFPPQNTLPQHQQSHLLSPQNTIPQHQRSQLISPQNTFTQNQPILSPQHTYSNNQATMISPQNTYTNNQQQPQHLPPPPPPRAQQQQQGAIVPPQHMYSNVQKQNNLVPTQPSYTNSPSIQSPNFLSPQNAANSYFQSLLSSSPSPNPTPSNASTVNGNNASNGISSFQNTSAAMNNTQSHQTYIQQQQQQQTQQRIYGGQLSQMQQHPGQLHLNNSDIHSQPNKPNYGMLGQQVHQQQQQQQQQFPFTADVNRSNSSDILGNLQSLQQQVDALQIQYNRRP
Assay: fluorescence polarization

B1: PP1 (Glc7) (protein)
chain: MDSQPVDVDNIIDRLLEVRGSKPGQQVDLEENEIRYLCSKARSIFIKQPILLELEAPIKICGDIHGQYYDLLRLFEYGGFPPESNYLFLGDYVDRGKQSLETICLLLAYKIKYPENFFILRGNHECASINRIYGFYDECKRRYNIKLWKTFTDCFNCLPIAAIIDEKIFCMHGGLSPDLNSMEQIRRVMRPTDIPDVGLLCDLLWSDPDKDIVGWSENDRGVSFTFGPDVVNRFLQKQDMELICRAHQVVEDGYEFFSKRQLVTLFSAPNYCGEFDNAGAMMSVDESLLCSFQILKPAQKSLPRQAGGRKKK
modifications: fluorescently labelled peptide
Q: How did the Kd turn out when B1 was run?
A: 22 µM
